Reference: the Human Domainome abundance scans (Beltran et al. 2025)
± gives the uncertainty stated by the source.

B1: FERM and PDZ domain-containing protein 4, residues 75 to 154; numbered along this chain, Q14CM0 (parent)
chain: APRKVEMRRDPVLGFGFVAGSEKPVVVRSVTPGGPSEGKLIPGDQIVMINDEPVSAAPRERVIDLVRSCKESILLTVIQP

Variants of: B1
Experiment: abundance fitness (aPCA) (normalised: wild type 0, dead -1); higher = more abundant; growth selection in yeast, the domain comes from the species named
Conditions: Homo sapiens

Variant | abundance fitness
V30K | -0.87 ± 0.056
A19R | -0.83 ± 0.034
A19G | -0.074 ± 0.021
A19M | 0.003 ± 0.033
A19T | -0.005 ± 0.03
A19V | 0.003 ± 0.024
A19S | -0.066 ± 0.026
S21G | 0.043 ± 0.022
S21W | -0.088 ± 0.027
E6P | -0.184 ± 0.028
E6T | -0.009 ± 0.027
E6W | -0.047 ± 0.025
L40F | -0.8 ± 0.069
L40W | -1.07 ± 0.046
G14R | -0.496 ± 0.028
G14Y | -0.761 ± 0.068
G14P | -0.963 ± 0.073
G14T | -0.718 ± 0.044
G14D | -0.025 ± 0.036
G20Y | -0.067 ± 0.04
G20I | -0.051 ± 0.05
G20H | -0.029 ± 0.047
I46N | -0.679 ± 0.31
I46F | -0.255 ± 0.21

Variant | abundance fitness
S68P | -0.578 ± 0.033
S68A | -0.033 ± 0.023
S68I | -0.214 ± 0.041
A57Y | 0.038 ± 0.037
A57R | -0.12 ± 0.021
A57T | 0 ± 0.028
A57S | -0.009 ± 0.024
A57N | -0.149 ± 0.038
A57G | -0.233 ± 0.021
A57H | -0.083 ± 0.039
A57K | -0.055 ± 0.032
A57F | 0.016 ± 0.038
F15T | -0.819 ± 0.053
F15E | -0.805 ± 0.045
F15Y | -0.039 ± 0.043
L75F | -0.101 ± 0.047
L75H | -0.553 ± 0.2
L75V | -0.097 ± 0.032
L75K | -0.387 ± 0.07
L75R | -0.631 ± 0.045
S72P | -0.284 ± 0.028
S72Q | -0.004 ± 0.027
S72C | -0.111 ± 0.032
S72I | -0.177 ± 0.029

Variant | abundance fitness
V77M | -0.475 ± 0.031
V77T | -0.231 ± 0.028
V77G | -0.653 ± 0.023
E71H | -0.081 ± 0.035
E71P | -0.219 ± 0.033
E71S | -0.055 ± 0.026
E71W | -0.215 ± 0.035
E71V | -0.164 ± 0.029
V12H | 0.043 ± 0.051
V12L | -0.001 ± 0.029
V12M | 0.007 ± 0.041
V12C | -0.056 ± 0.04
V12N | 0.025 ± 0.056
V12E | -0.068 ± 0.036
R8I | 0.006 ± 0.046
R8D | 0.029 ± 0.042
R8F | 0.013 ± 0.043
R8H | -0.058 ± 0.052
R8L | -0.011 ± 0.028
P42Q | -0.043 ± 0.029
P42E | -0.024 ± 0.025
P42K | -0.108 ± 0.03
P42I | -0.082 ± 0.038
R61Y | -0.019 ± 0.03

Variant | abundance fitness
R61I | -0.107 ± 0.033
R61F | -0.044 ± 0.034
R61C | -0.065 ± 0.032
R61V | -0.044 ± 0.026
R61A | -0.018 ± 0.029
R9Q | -0.3 ± 0.035
R9W | -0.089 ± 0.028
R9K | -0.031 ± 0.031
R9D | -0.792 ± 0.09
R9S | -0.152 ± 0.025
R9N | -0.157 ± 0.063
R9I | -0.142 ± 0.038
S36D | -0.826 ± 0.072
S36M | -0.567 ± 0.041
S36G | -0.05 ± 0.022
L65R | -0.093 ± 0.02
L65I | -0.052 ± 0.041
L65A | -0.056 ± 0.024
L65E | -0.249 ± 0.028
L65P | -0.841 ± 0.055
Q45T | -0.105 ± 0.023
Q45C | -0.101 ± 0.03
Q45W | -0.2 ± 0.03
Q45F | -0.247 ± 0.03

Variant | abundance fitness
Q45A | -0.084 ± 0.026
Q45E | -0.037 ± 0.031
P24N | -0.333 ± 0.054
P24V | -0.725 ± 0.034
P24H | -0.501 ± 0.05
P24W | -0.947 ± 0.049
P24K | -0.64 ± 0.049
V66N | -0.733 ± 0.066
V66Q | -0.451 ± 0.035
V18P | -1.03 ± 0.073
V18F | -0.255 ± 0.044
V18A | -0.058 ± 0.023
V18Y | -0.078 ± 0.046
K23F | -0.066 ± 0.04
K23V | -0.136 ± 0.026
K23T | -0.037 ± 0.031
K23D | -0.042 ± 0.039
T76D | -0.073 ± 0.055
T76P | -0.639 ± 0.081
T76V | -0.133 ± 0.031
T76K | -0.036 ± 0.04
P58C | -0.043 ± 0.029
P58A | -0.067 ± 0.023
P58N | -0.04 ± 0.037

Variant | abundance fitness
P58S | 0.017 ± 0.025
P58K | -0.027 ± 0.032
L74T | -0.014 ± 0.043
L74C | 0.038 ± 0.05
G43T | -0.424 ± 0.031
G43S | -0.262 ± 0.025
G43C | -0.252 ± 0.034
R67W | -0.182 ± 0.024
R67G | -0.038 ± 0.019
R67C | -0.055 ± 0.029
R67K | 0.002 ± 0.027
R67Q | 0.001 ± 0.028
E60N | -0.028 ± 0.038
E60S | -0.005 ± 0.024
E60L | -0.137 ± 0.022
E60G | -0.025 ± 0.019
E60I | -0.21 ± 0.04
K70F | -0.256 ± 0.034
K70Y | -0.153 ± 0.029
K70G | -0.093 ± 0.026
G33H | -0.101 ± 0.045
G33W | -0.228 ± 0.029
G33E | -0.112 ± 0.03
T31D | -0.058 ± 0.036

Variant | abundance fitness
T31N | -0.055 ± 0.029
T31V | -0.058 ± 0.025
T31Y | -0.117 ± 0.031
T31A | -0.045 ± 0.025
T31H | -0.016 ± 0.029
T31Q | -0.029 ± 0.028
T31M | -0.067 ± 0.032
V26T | 0.008 ± 0.028
V26F | -0.123 ± 0.043
V26K | -0.048 ± 0.028
V26Y | -0.123 ± 0.043
R59V | -0.051 ± 0.022
G16Q | -0.889 ± 0.066
G16C | -0.956 ± 0.074
G16K | -0.911 ± 0.066
G16Y | -1.3 ± 0.27
G16I | -1.32 ± 0.2
F17H | -0.806 ± 0.074
F17M | -0.381 ± 0.035
F17L | -0.294 ± 0.026
A1C | 0.003 ± 0.064
A1F | -0.199 ± 0.17
A1D | -0.046 ± 0.05
